Results taken from patent US20190284287A1 (TUSK THERAPEUTICS, published 2019).
Positions count from the first letter of the chain named. Values belong to the binder of their own block, whether it stands above or below them.

Key:
[1] = target: T1, human CD25 expressed on cells (human, UniProt P01589 22-272); assay: cell-based or functional assay
T1 sequence: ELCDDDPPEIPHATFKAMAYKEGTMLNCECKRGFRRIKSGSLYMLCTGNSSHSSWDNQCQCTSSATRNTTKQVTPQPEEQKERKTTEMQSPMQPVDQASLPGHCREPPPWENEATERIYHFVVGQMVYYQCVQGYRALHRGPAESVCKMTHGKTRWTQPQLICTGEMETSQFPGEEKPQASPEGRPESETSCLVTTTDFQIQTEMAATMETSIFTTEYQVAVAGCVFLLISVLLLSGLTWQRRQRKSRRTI

[2] = target: T2, recombinant human CD25 extracellular protein sequence (rhCD25) (human, UniProt P01589 22-240); assay: method not given; lower end of the stated range
T2 construct: also called human CD25 antigen
T2 sequence: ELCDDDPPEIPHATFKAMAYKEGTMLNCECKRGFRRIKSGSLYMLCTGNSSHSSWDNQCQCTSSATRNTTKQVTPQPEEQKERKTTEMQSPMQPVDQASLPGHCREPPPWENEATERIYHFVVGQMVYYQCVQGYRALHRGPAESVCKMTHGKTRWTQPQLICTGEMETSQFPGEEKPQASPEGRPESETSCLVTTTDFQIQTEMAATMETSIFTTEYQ

[3] = target: T2, recombinant human CD25 extracellular …; assay: method not given; upper end of the stated range
[4] = target: T3, recombinant human CD25 his tagged (human, UniProt P01589 22-240); assay: BLI, ForteBio Octet Red96; IgG on AHC sensors, rhCD25-His in solution, 1:1 fit
T3 construct: also called rhCD25-his tag; not shown: His tag
T3 sequence: T2 sequence

[5] = target: T1, human CD25 expressed on cells; assay: flow cytometry on CD3/CD28 bead activated human Pan T cells, gated on CD4+ T cells
Description: (§1) Binding to CD25 expressing activated human and Cynomolgus monkey PMBC was examined by staining test articles (anti-CD25 primary antibodies) with 20 μg/ml antibodies followed by semi-log dilution series (7-point) for 30 minutes on ice. This was followed by staining with a secondary antibody (rabbit anti-human Fcg F(ab′)2—(Jackson ImmunoResearch)) concentration of 5 μg/ml for 30 minutes on ice. All samples were stained in triplicates. To minimize cross-linking induced cell death mediated by binding of the secondary antibody, cell lines were examined in staining cohorts of 4 test articles at a time. Live lymphocytes were gated using FSC vs SSC parameters by flow cytometry during sample acquisition. Mean fluorescence intensity (MFI) of gated CD4⁺ and CD8⁺ T cell subsets were plotted on an XY chart, graphing MFI against the log of the concentration, and the data fit to a non-linear regression curve from which the EC50 was calculated.

[6] = target: T1, human CD25 expressed on cells; assay: flow cytometry on CD3/CD28 bead activated human Pan T cells, gated on CD8+ T cells
Description: as §1

[7] = target: T3, recombinant human CD25 his tagged; assay: SPR, Biacore 2000; antibody captured by anti-human antibody, rhCD25-His as analyte, two state fit
Description: (§2) Anti-human antibody was initially immobilised across all flow cells in analysis buffer (pH 7.4, 10 mM HEPES, 150 mM NaCl, 3 mM EDTA, 0.05% Tween 20) to an RU of between 12,000-14,000 over 10 minutes. […] Dissociation was performed in analysis buffer over 10 minutes. Regeneration steps between sample concentrations were performed in 10 mM Glycin pH1.7 for 10 minutes. A flow rate of 25 μl/min was maintained throughout the process. Kinetics data were fit using a global two state reaction conformational change analysis software provided by Biacore with reference subtraction.

[8] = target: T1, human CD25 expressed on cells; assay: flow cytometry on human in vitro differentiated Treg cells, Alexa Fluor 647 anti-human IgG secondary
Description: Binding to CD25 expressing in vitro differentiated Tregs was examined by staining test articles (anti-CD25 primary antibodies) with 30 μg/ml antibodies followed by semi-log dilution series (7-point) for 30 minutes on ice. […] All samples were stained in duplicates. Live cells were gated using FSC vs SSC parameters by flow cytometry during sample acquisition. Mean fluorescence intensity (MFI) of stained cells were plotted on an XY chart, graphing MFI against the log of the concentration, and the data fit to a non-linear regression curve from which the EC50 is calculated.

[9] = target: T4, inhouse produced monomeric human CD25 antigen (P1AA5872) (human, UniProt P01589 22-240, limits assumed); assay: SPR, Biacore T200; antibody captured by anti-human Fab, monomeric CD25 as analyte, 1:1 Langmuir fit; column 'Binding strength'
T4 construct: also called Inhouse (0% dimer)
T4 sequence: T2 sequence
Description: (§3) Binding of CD25 antibodies to human CD25 antigen was investigated by surface plasmon resonance using a BIACORE T200 instrument (GE Healthcare).
(§4) The flow cell was set to 25° C. and the sample compartment to 12° C. The CD25 antibody was captured by injecting a 3 μg/ml solution for 60 sec at a flow rate of 10 μl/min. Association of CD25 antigen was measured by injection of human CD25 solutions for 180 sec at a flow rate of 30 μl/min starting with a concentration of 1000 nM down to 1 nM in 1:10 dilution steps. The dissociation phase was triggered by switching from sample solution injection to running buffer and monitored for up to 600 seconds. The surface was regenerated by washing with two consecutive 1-minute injections of 10mM glycine pH 2.1 (provided by the kit) at a flow rate of 10 μl/min. Bulk refractive index differences were corrected by subtracting the response obtained from an anti-human Fab reference surface; blank injections are also subtracted (=double referencing).
(§5) For calculation of KD and kinetic parameters Biacore provided fitting models were used to obtain optimal curve fitting results. The 1:1 Langmuir fit was used for P1AA5872 and the Two State Kinetic fitting for CD25 from Sino Biologicals and R&D Systems.

[10] = target: T1, human CD25 expressed on cells; assay: flow cytometry on Karpas 299 cells, Alexa Fluor 647 anti-human IgG Fc secondary [B); D00021 Figure 21 cont. C), D), E]
Description: Binding to CD25 expressing Karpas299 cells was examined by staining test articles (anti-CD25 primary antibodies) with 20 μg/ml antibodies followed by semi-log dilution series (7-point) for 30 minutes on ice. […] All samples were stained in duplicates. Live cells were gated using FSC vs SSC parameters by flow cytometry during sample acquisition. Mean fluorescence intensity (MFI) of stained cells were plotted on an XY chart, graphing MFI against the log of the concentration, and the data fit to a non-linear regression curve from which the EC50 is calculated.

[11] = target: T5, human CD25 antigen, R&D Systems cat no. 223-2A/CF (~10% dimer) (human, UniProt P01589 22-240, limits assumed); assay: SPR, Biacore T200; antibody captured by anti-human Fab, CD25 as analyte, Two State Reaction fit; column 'Binding strength' (affinity and/or avidity)
T5 construct: also called R&D Systems (~10% dimer); huCD25 (IL2R alpha)
T5 sequence: T2 sequence
Description: as §3, §4, §5

[12] = target: T6, human CD25 antigen, Sino Biologicals cat no. 10165-H08H (~20% dimer) (human, UniProt P01589 22-213); assay: SPR, Biacore T200; antibody captured by anti-human Fab, CD25 as analyte, Two State Reaction fit; column 'Binding strength' (affinity and/or avidity); Sino Biological CD25 (~20% dimer), Two State Reaction fit; affinity and/or avidity
T6 construct: Bought antigen; also called Sino biological (~20% dimer)
T6 sequence: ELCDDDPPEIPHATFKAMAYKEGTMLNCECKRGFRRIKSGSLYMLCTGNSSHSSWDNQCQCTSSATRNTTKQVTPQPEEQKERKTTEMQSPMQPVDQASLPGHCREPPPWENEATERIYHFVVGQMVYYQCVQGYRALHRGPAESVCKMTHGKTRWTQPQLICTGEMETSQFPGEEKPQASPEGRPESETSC
Excerpt: as §3, §5

[13] = target: T3, recombinant human CD25 his tagged; assay: SPR, Biacore 2000: IgG1 captured on an anti-human antibody CM-5 chip, rhCD25-his tag as analyte
[14] = target: T3, recombinant human CD25 his tagged; assay: as above; remark: listed apart in the source
[15] = target: T3, recombinant human CD25 his tagged; assay: as above; remark: listed apart in the source
Description: as §2

[16] = target: T3, recombinant human CD25 his tagged; assay: as above; remark: listed apart in the source
[17] = target: T3, recombinant human CD25 his tagged; assay: as above; remark: listed apart in the source

- ADCC of iTregs by IL-2 activated NK cells: EC50 [1]: 0.01 uG/mL
B2: afucosylated aCD25-a-686 (antibody, human IgG1, V domains shown)
VH: QVQLVQSGAEVKKPGSSVKVSCKASGGTFSSLAISWVRQAPGQGLEWMGGIIPIFGTANYAQKFQGRVTITADESTSTAYMELSSLRSEDTAVYYCARGGSVSGTLVDFDIWGQGTMVTVSS
VL: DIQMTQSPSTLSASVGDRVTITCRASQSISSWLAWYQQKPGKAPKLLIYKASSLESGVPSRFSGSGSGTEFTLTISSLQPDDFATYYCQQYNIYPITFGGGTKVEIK
modifications: Fc glycan afucosylated (>99% of a-fucosylation by LC/MS)

- Kd [13]: 0.66 nM
B3: aCD25-a-686-m5 (antibody, IgG1, V domains shown)
VH: B2 VH with S35F, I54V, T57Q, A72V
VL: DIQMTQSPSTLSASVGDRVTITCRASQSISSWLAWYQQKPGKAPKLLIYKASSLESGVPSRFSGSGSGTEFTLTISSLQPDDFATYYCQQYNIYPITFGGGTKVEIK

- Kd [15]: 0.34 nM
B5: aCD25-a-686-m3 (antibody, IgG1, V domains shown)
VH: B2 VH with T57D, F64L, I70M, A72T, E74T, S84R, E89D
VL: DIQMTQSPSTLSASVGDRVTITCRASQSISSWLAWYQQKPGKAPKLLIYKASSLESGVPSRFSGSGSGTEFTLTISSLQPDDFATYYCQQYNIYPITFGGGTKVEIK

- Kd [16]: 0.76 nM
B6: aCD25-a-686-m4 (antibody, IgG1, V domains shown)
VH: B2 VH with S31A, I54L, T57R
VL: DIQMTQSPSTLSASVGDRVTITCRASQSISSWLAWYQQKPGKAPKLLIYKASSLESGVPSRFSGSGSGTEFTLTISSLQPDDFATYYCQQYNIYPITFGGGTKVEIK

Continued, binder first:

B1: aCD25-a-686 (antibody, V domains shown)
VH: B2 VH
VL: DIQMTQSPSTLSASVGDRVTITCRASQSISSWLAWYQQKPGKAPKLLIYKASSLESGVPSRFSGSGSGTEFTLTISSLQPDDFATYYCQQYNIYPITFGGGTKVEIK
notes: not shown: human IgG1 heavy chain constant region (P01857); human kappa light chain constant region (P01834)
- ADCC of iTregs by IL-2 activated NK cells: EC50 [1]: 0.21 uG/mL
- Kd [2]: ≥ 0.1 nM
- Kd [3]: ≤ 10 nM
- Kd [4]: 2.33 nM
- EC50 (read off the curve) [5]: ~0.4 µg/mL
- EC50 (read off the curve) [6]: ~0.5 µg/mL
- Kd [7]: 3.2 nM
- EC50 (read off the curve) [8]: ~1 µg/mL
- Kd [9]: 244 nM
- EC50 (read off the curve) [10]: ~0.5 µg/mL
- Kd [11]: 5.8 nM
- Kd [12]: 2.5 nM

B4: aCD25-a-686-m2 (antibody, IgG1, V domains shown)
VH: B2 VH with S35T, T57D, N59S
VL: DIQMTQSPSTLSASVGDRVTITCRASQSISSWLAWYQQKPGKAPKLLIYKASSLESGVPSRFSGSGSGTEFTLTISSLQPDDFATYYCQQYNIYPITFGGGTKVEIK
- Kd [14]: 1.9 nM

B7: aCD25-a-686-m1 (antibody, IgG1, V domains shown)
VH: B2 VH with G50A, I54V, N59S
VL: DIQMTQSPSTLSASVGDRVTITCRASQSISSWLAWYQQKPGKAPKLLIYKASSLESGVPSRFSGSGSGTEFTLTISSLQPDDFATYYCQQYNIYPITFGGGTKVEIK
notes: also called aCD25-a-686-ml; aCD25-a-686ml
- Kd [17]: 0.97 nM
